Measured values published in the Immune Epitope Database (IEDB).

Experiments:
Experiment in all cases: IEDB peptide-MHC binding, purified MHC/competitive/radioactivity; filed as Kd, often an IC50 or EC50 that approximates it; ≥ and ≤ were set here for values at or beyond the usual limits of such assays
[1] = target: HLA-A*02:03
[2] = target: HLA-A*02:06
[3] = target: HLA-A*03:01
[4] = target: HLA-A*11:01
[5] = target: HLA-A*31:01
[6] = target: HLA-A*33:01
[7] = target: HLA-A*68:01
[8] = source organism: Human immunodeficiency virus type 1 (CLONE 12)
[9] = source organism: Vaccinia virus WR
[10] = source organism: SARS coronavirus Tor2
[11] = source organism: Mammarenavirus brazilense
[12] = source organism: Lymphocytic choriomeningitis virus (strain Armstrong)
[13] = source organism: Dengue virus 2 Jamaica/1409/1983
[14] = source organism: Mammarenavirus whitewaterense
[15] = source organism: Mammarenavirus lassaense

Sequence | Kd [3, 9] | Kd [4, 9] | Kd [5, 9] | Kd [6, 9] | Kd [7, 9] | other results
RILQQLLFI | – | – | – | – | – | Kd [1, 8]: 543 nM; Kd [2, 8]: 21.6 nM
AIDRQVSVK | 144 nM | 42.1 nM | 4370 nM | ≥ 77700 nM | 11300 nM | –
SQILPDPLK | – | – | – | – | – | Kd [3, 10]: 17400 nM; Kd [4, 10]: 4550 nM; Kd [5, 10]: ≥ 25300 nM; Kd [6, 10]: ≥ 55900 nM; Kd [7, 10]: ≥ 50400 nM
FIVPEFAKQY | ≥ 70100 nM | ≥ 69800 nM | ≥ 70000 nM | ≥ 70000 nM | 11300 nM | –
NFFVFIHMVR | 174 nM | 718 nM | 18.6 nM | 7.99 nM | 0.996 nM | –
VTLDFTKFH | – | – | – | – | – | Kd [3, 11]: 7440 nM; Kd [4, 11]: 208 nM; Kd [5, 11]: 13100 nM; Kd [6, 11]: ≥ 57200 nM; Kd [7, 11]: ≥ 28400 nM
TFFIFNKLVK | – | – | – | – | – | Kd [3, 10]: 81.8 nM; Kd [4, 10]: 50.5 nM; Kd [5, 10]: 1550 nM; Kd [6, 10]: 1370 nM; Kd [7, 10]: 490 nM
VFHLYLQYIR | – | – | – | – | – | Kd [3, 10]: 713 nM; Kd [4, 10]: 1150 nM; Kd [5, 10]: 56.3 nM; Kd [6, 10]: 174 nM; Kd [7, 10]: 868 nM
IYKGVYQFK | – | – | – | – | – | Kd [3, 12]: 198 nM; Kd [4, 12]: 718 nM; Kd [5, 12]: 3.21 nM; Kd [6, 12]: 13.5 nM; Kd [7, 12]: 8810 nM
TSEKYSKGYK | ≥ 25000 nM | 1050 nM | ≥ 70000 nM | ≥ 70000 nM | 924 nM | –
DLTAALRDV | – | – | – | – | – | Kd ([2]; source organism: Homo sapiens): ≥ 28100 nM
FMLIFNVKSK | 211 nM | 3430 nM | 6050 nM | 19400 nM | 37.7 nM | –
NISIISIRPR | 2640 nM | 866 nM | 49.6 nM | 285 nM | 5.1 nM | –
TILIRTGLLV | – | – | – | – | – | Kd [2, 13]: 101 nM
NIRLTDTEY | ≥ 78000 nM | ≥ 77900 nM | ≥ 77900 nM | ≥ 77700 nM | ≥ 77700 nM | –
GVFKNPCTSH | – | – | – | – | – | Kd [3, 14]: 6290 nM; Kd [4, 14]: 2690 nM; Kd [5, 14]: ≥ 30100 nM; Kd [6, 14]: ≥ 70000 nM; Kd [7, 14]: ≥ 26000 nM
LIIGPMFSGK | 6.17 nM | 1.81 nM | 1270 nM | 2560 nM | 9.92 nM | –
IMAYVNQAH | – | – | – | – | – | Kd [3, 11]: 2210 nM; Kd [4, 11]: ≥ 26900 nM; Kd [5, 11]: 3410 nM; Kd [6, 11]: ≥ 36000 nM; Kd [7, 11]: ≥ 23500 nM
VCSFYADPK | – | – | – | – | – | Kd [3, 15]: 3840 nM; Kd [4, 15]: 3130 nM; Kd [5, 15]: ≥ 27200 nM; Kd [6, 15]: ≥ 77700 nM; Kd [7, 15]: 5680 nM
KVVKKLSVIR | 5120 nM | 916 nM | 56.3 nM | 3620 nM | 482 nM | –
ALALLLLDR | – | – | – | – | – | Kd [3, 10]: 3150 nM; Kd [4, 10]: 7530 nM; Kd [5, 10]: 8000 nM; Kd [6, 10]: ≥ 51700 nM; Kd [7, 10]: ≥ 52900 nM
SSDSENNPEY | ≥ 70100 nM | 4460 nM | ≥ 70000 nM | ≥ 70000 nM | ≥ 70200 nM | –
SSAVVDNKLK | 289 nM | 37.2 nM | 1520 nM | 17500 nM | 1.19 nM | –
IILFILFFAY | 720 nM | 11100 nM | 1330 nM | 2570 nM | 325 nM | –
RSNAILHNIY | 3720 nM | 1360 nM | 619 nM | ≥ 70000 nM | 1030 nM | –
RFVKFNDYRK | 516 nM | 429 nM | 37.3 nM | 1830 nM | 51.1 nM | –
ILIRTGLLV | – | – | – | – | – | Kd [1, 13]: 16.3 nM
MIKNLTQLFK | 0.828 nM | 0.762 nM | 4.29 nM | 318 nM | 1.62 nM | –
MINYYNEMSR | 143 nM | 53.3 nM | 95.9 nM | 406 nM | 13.4 nM | –
